Laboratory results taken from patent publication US20260001928A1 (CORTERIA PHARMACEUTICALS, priority 2022, published 2026).
*1 amine or outer side, *2 acyl side, *3 side chain or, on linkers, in order; H or OH if unused. Side-chain parts run from the residue outwards. [ ]: non-standard residue; d: D form. The star is where a group is joined. C16 diacid = O=C(O)CCCCCCCCCCCCCCC(=O)*; γGlu = O=C(O)[C@H](CCC(=O)[*:2])N[*:1]; C14 diacid = O=C(O)CCCCCCCCCCCCC(=O)*; Api = NC1(C(=O)O)CCNCC1; Aib = CC(C)(N)C(=O)O

T1: CRF1R receptor (UniProt P34998 24-415, limits assumed)
T1 sequence (looked up): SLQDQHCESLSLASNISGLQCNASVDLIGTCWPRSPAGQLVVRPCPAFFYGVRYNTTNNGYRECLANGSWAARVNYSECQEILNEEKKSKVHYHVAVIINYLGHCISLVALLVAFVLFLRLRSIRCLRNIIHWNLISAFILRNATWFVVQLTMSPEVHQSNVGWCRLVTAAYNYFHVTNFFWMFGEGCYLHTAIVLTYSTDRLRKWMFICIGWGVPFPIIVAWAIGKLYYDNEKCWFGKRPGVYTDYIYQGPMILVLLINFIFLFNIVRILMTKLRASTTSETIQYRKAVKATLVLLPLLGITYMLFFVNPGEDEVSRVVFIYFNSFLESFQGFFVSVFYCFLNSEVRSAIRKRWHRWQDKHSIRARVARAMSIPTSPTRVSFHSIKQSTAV

B1: SEQ ID NO 168 (peptide)
peptide: Ac-IVLSLD[dV]PIKLK([γGlu-C16 diacid])KILLEQEKQKEQREQAETN[Aib]QILAQV-NH2
SMILES: CC[C@H](C)[C@H](NC(C)=O)C(=O)N[C@H](C(=O)N[C@@H](CC(C)C)C(=O)N[C@@H](CO)C(=O)N[C@@H](CC(C)C)C(=O)N[C@@H](CC(=O)O)C(=O)N[C@@H](C(=O)N1CCC[C@H]1C(=O)N[C@H](C(=O)N[C@@H](CCCCN)C(=O)N[C@@H](CC(C)C)C(=O)N[C@@H](CCCCNC(=O)CC[C@H](NC(=O)CCCCCCCCCCCCCCC(=O)O)C(=O)O)C(=O)N[C@@H](CCCCN)C(=O)N[C@H](C(=O)N[C@@H](CC(C)C)C(=O)N[C@@H](CC(C)C)C(=O)N[C@@H](CCC(=O)O)C(=O)N[C@@H](CCC(N)=O)C(=O)N[C@@H](CCC(=O)O)C(=O)N[C@@H](CCCCN)C(=O)N[C@@H](CCC(N)=O)C(=O)N[C@@H](CCCCN)C(=O)N[C@@H](CCC(=O)O)C(=O)N[C@@H](CCC(N)=O)C(=O)N[C@@H](CCCNC(=N)N)C(=O)N[C@@H](CCC(=O)O)C(=O)N[C@@H](CCC(N)=O)C(=O)N[C@@H](C)C(=O)N[C@@H](CCC(=O)O)C(=O)N[C@H](C(=O)N[C@@H](CC(N)=O)C(=O)NC(C)(C)C(=O)N[C@@H](CCC(N)=O)C(=O)N[C@H](C(=O)N[C@@H](CC(C)C)C(=O)N[C@@H](C)C(=O)N[C@@H](CCC(N)=O)C(=O)N[C@H](C(N)=O)C(C)C)[C@@H](C)CC)[C@@H](C)O)[C@@H](C)CC)[C@@H](C)CC)C(C)C)C(C)C
B2: SEQ ID NO 165 (peptide)
peptide: Ac-IVLSLD[dV]PIKLK([γGlu-C16 diacid])KILLEQEAQKKQREQAETN[Aib]QILAQV-NH2
SMILES: CC[C@H](C)[C@H](NC(C)=O)C(=O)N[C@H](C(=O)N[C@@H](CC(C)C)C(=O)N[C@@H](CO)C(=O)N[C@@H](CC(C)C)C(=O)N[C@@H](CC(=O)O)C(=O)N[C@@H](C(=O)N1CCC[C@H]1C(=O)N[C@H](C(=O)N[C@@H](CCCCN)C(=O)N[C@@H](CC(C)C)C(=O)N[C@@H](CCCCNC(=O)CC[C@H](NC(=O)CCCCCCCCCCCCCCC(=O)O)C(=O)O)C(=O)N[C@@H](CCCCN)C(=O)N[C@H](C(=O)N[C@@H](CC(C)C)C(=O)N[C@@H](CC(C)C)C(=O)N[C@@H](CCC(=O)O)C(=O)N[C@@H](CCC(N)=O)C(=O)N[C@@H](CCC(=O)O)C(=O)N[C@@H](C)C(=O)N[C@@H](CCC(N)=O)C(=O)N[C@@H](CCCCN)C(=O)N[C@@H](CCCCN)C(=O)N[C@@H](CCC(N)=O)C(=O)N[C@@H](CCCNC(=N)N)C(=O)N[C@@H](CCC(=O)O)C(=O)N[C@@H](CCC(N)=O)C(=O)N[C@@H](C)C(=O)N[C@@H](CCC(=O)O)C(=O)N[C@H](C(=O)N[C@@H](CC(N)=O)C(=O)NC(C)(C)C(=O)N[C@@H](CCC(N)=O)C(=O)N[C@H](C(=O)N[C@@H](CC(C)C)C(=O)N[C@@H](C)C(=O)N[C@@H](CCC(N)=O)C(=O)N[C@H](C(N)=O)C(C)C)[C@@H](C)CC)[C@@H](C)O)[C@@H](C)CC)[C@@H](C)CC)C(C)C)C(C)C
B3: SEQ ID NO 164 (peptide)
peptide: Ac-IVLSLD[dV]PIKLK([γGlu-C16 diacid])AILLEQEKQKKQREQAETN[Aib]QILAQV-NH2
SMILES: CC[C@H](C)[C@H](NC(C)=O)C(=O)N[C@H](C(=O)N[C@@H](CC(C)C)C(=O)N[C@@H](CO)C(=O)N[C@@H](CC(C)C)C(=O)N[C@@H](CC(=O)O)C(=O)N[C@@H](C(=O)N1CCC[C@H]1C(=O)N[C@H](C(=O)N[C@@H](CCCCN)C(=O)N[C@@H](CC(C)C)C(=O)N[C@@H](CCCCNC(=O)CC[C@H](NC(=O)CCCCCCCCCCCCCCC(=O)O)C(=O)O)C(=O)N[C@@H](C)C(=O)N[C@H](C(=O)N[C@@H](CC(C)C)C(=O)N[C@@H](CC(C)C)C(=O)N[C@@H](CCC(=O)O)C(=O)N[C@@H](CCC(N)=O)C(=O)N[C@@H](CCC(=O)O)C(=O)N[C@@H](CCCCN)C(=O)N[C@@H](CCC(N)=O)C(=O)N[C@@H](CCCCN)C(=O)N[C@@H](CCCCN)C(=O)N[C@@H](CCC(N)=O)C(=O)N[C@@H](CCCNC(=N)N)C(=O)N[C@@H](CCC(=O)O)C(=O)N[C@@H](CCC(N)=O)C(=O)N[C@@H](C)C(=O)N[C@@H](CCC(=O)O)C(=O)N[C@H](C(=O)N[C@@H](CC(N)=O)C(=O)NC(C)(C)C(=O)N[C@@H](CCC(N)=O)C(=O)N[C@H](C(=O)N[C@@H](CC(C)C)C(=O)N[C@@H](C)C(=O)N[C@@H](CCC(N)=O)C(=O)N[C@H](C(N)=O)C(C)C)[C@@H](C)CC)[C@@H](C)O)[C@@H](C)CC)[C@@H](C)CC)C(C)C)C(C)C
B4: SEQ ID NO 166 (peptide)
peptide: Ac-IVLSLD[dV]PIKLK([γGlu-C16 diacid])KILLEQEKQAKQREQAETN[Aib]QILAQV-NH2
SMILES: CC[C@H](C)[C@H](NC(C)=O)C(=O)N[C@H](C(=O)N[C@@H](CC(C)C)C(=O)N[C@@H](CO)C(=O)N[C@@H](CC(C)C)C(=O)N[C@@H](CC(=O)O)C(=O)N[C@@H](C(=O)N1CCC[C@H]1C(=O)N[C@H](C(=O)N[C@@H](CCCCN)C(=O)N[C@@H](CC(C)C)C(=O)N[C@@H](CCCCNC(=O)CC[C@H](NC(=O)CCCCCCCCCCCCCCC(=O)O)C(=O)O)C(=O)N[C@@H](CCCCN)C(=O)N[C@H](C(=O)N[C@@H](CC(C)C)C(=O)N[C@@H](CC(C)C)C(=O)N[C@@H](CCC(=O)O)C(=O)N[C@@H](CCC(N)=O)C(=O)N[C@@H](CCC(=O)O)C(=O)N[C@@H](CCCCN)C(=O)N[C@@H](CCC(N)=O)C(=O)N[C@@H](C)C(=O)N[C@@H](CCCCN)C(=O)N[C@@H](CCC(N)=O)C(=O)N[C@@H](CCCNC(=N)N)C(=O)N[C@@H](CCC(=O)O)C(=O)N[C@@H](CCC(N)=O)C(=O)N[C@@H](C)C(=O)N[C@@H](CCC(=O)O)C(=O)N[C@H](C(=O)N[C@@H](CC(N)=O)C(=O)NC(C)(C)C(=O)N[C@@H](CCC(N)=O)C(=O)N[C@H](C(=O)N[C@@H](CC(C)C)C(=O)N[C@@H](C)C(=O)N[C@@H](CCC(N)=O)C(=O)N[C@H](C(N)=O)C(C)C)[C@@H](C)CC)[C@@H](C)O)[C@@H](C)CC)[C@@H](C)CC)C(C)C)C(C)C
B5: SEQ ID NO 167 (peptide)
peptide: Ac-IVLSLD[dV]PIKLK([γGlu-C16 diacid])KILLEQEKQKKQAEQAETN[Aib]QILAQV-NH2
SMILES: CC[C@H](C)[C@H](NC(C)=O)C(=O)N[C@H](C(=O)N[C@@H](CC(C)C)C(=O)N[C@@H](CO)C(=O)N[C@@H](CC(C)C)C(=O)N[C@@H](CC(=O)O)C(=O)N[C@@H](C(=O)N1CCC[C@H]1C(=O)N[C@H](C(=O)N[C@@H](CCCCN)C(=O)N[C@@H](CC(C)C)C(=O)N[C@@H](CCCCNC(=O)CC[C@H](NC(=O)CCCCCCCCCCCCCCC(=O)O)C(=O)O)C(=O)N[C@@H](CCCCN)C(=O)N[C@H](C(=O)N[C@@H](CC(C)C)C(=O)N[C@@H](CC(C)C)C(=O)N[C@@H](CCC(=O)O)C(=O)N[C@@H](CCC(N)=O)C(=O)N[C@@H](CCC(=O)O)C(=O)N[C@@H](CCCCN)C(=O)N[C@@H](CCC(N)=O)C(=O)N[C@@H](CCCCN)C(=O)N[C@@H](CCCCN)C(=O)N[C@@H](CCC(N)=O)C(=O)N[C@@H](C)C(=O)N[C@@H](CCC(=O)O)C(=O)N[C@@H](CCC(N)=O)C(=O)N[C@@H](C)C(=O)N[C@@H](CCC(=O)O)C(=O)N[C@H](C(=O)N[C@@H](CC(N)=O)C(=O)NC(C)(C)C(=O)N[C@@H](CCC(N)=O)C(=O)N[C@H](C(=O)N[C@@H](CC(C)C)C(=O)N[C@@H](C)C(=O)N[C@@H](CCC(N)=O)C(=O)N[C@H](C(N)=O)C(C)C)[C@@H](C)CC)[C@@H](C)O)[C@@H](C)CC)[C@@H](C)CC)C(C)C)C(C)C
B6: SEQ ID NO 169 (peptide)
peptide: Ac-IVLSLD[dV]PIKLK([γGlu-C14 diacid])KILLEQEKQKAQREQAETN[Api]QILAQV-NH2
SMILES: CC[C@H](C)[C@H](NC(C)=O)C(=O)N[C@H](C(=O)N[C@@H](CC(C)C)C(=O)N[C@@H](CO)C(=O)N[C@@H](CC(C)C)C(=O)N[C@@H](CC(=O)O)C(=O)N[C@@H](C(=O)N1CCC[C@H]1C(=O)N[C@H](C(=O)N[C@@H](CCCCN)C(=O)N[C@@H](CC(C)C)C(=O)N[C@@H](CCCCNC(=O)CC[C@H](NC(=O)CCCCCCCCCCCCC(=O)O)C(=O)O)C(=O)N[C@@H](CCCCN)C(=O)N[C@H](C(=O)N[C@@H](CC(C)C)C(=O)N[C@@H](CC(C)C)C(=O)N[C@@H](CCC(=O)O)C(=O)N[C@@H](CCC(N)=O)C(=O)N[C@@H](CCC(=O)O)C(=O)N[C@@H](CCCCN)C(=O)N[C@@H](CCC(N)=O)C(=O)N[C@@H](CCCCN)C(=O)N[C@@H](C)C(=O)N[C@@H](CCC(N)=O)C(=O)N[C@@H](CCCNC(=N)N)C(=O)N[C@@H](CCC(=O)O)C(=O)N[C@@H](CCC(N)=O)C(=O)N[C@@H](C)C(=O)N[C@@H](CCC(=O)O)C(=O)N[C@H](C(=O)N[C@@H](CC(N)=O)C(=O)NC1(C(=O)N[C@@H](CCC(N)=O)C(=O)N[C@H](C(=O)N[C@@H](CC(C)C)C(=O)N[C@@H](C)C(=O)N[C@@H](CCC(N)=O)C(=O)N[C@H](C(N)=O)C(C)C)[C@@H](C)CC)CCNCC1)[C@@H](C)O)[C@@H](C)CC)[C@@H](C)CC)C(C)C)C(C)C

target: human corticotropin-releasing factor 2a (CRF2a receptor) (human), Q13324; assay: cell-based or functional assay
Sequence (Q13324 20-411): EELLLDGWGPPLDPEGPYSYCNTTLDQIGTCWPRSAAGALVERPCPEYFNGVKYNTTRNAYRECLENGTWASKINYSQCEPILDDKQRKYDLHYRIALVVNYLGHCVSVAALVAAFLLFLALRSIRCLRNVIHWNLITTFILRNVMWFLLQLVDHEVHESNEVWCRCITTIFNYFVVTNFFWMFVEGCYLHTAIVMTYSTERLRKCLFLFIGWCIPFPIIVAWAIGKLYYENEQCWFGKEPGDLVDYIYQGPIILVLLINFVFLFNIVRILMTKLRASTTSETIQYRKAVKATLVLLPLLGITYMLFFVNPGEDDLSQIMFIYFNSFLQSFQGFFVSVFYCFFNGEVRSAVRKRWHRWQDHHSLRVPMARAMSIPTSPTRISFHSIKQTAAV

EC50 [nM] (cAMP) | Binder
0.8 nM | B1
0.64 nM | B2
2.43 nM | B3
0.77 nM | B4
1.15 nM | B5
1.34 nM | B6

target: T1, CRF1R receptor; assay: cell-based or functional assay

Emax (% I) | Binder
3% | B1
14% | B2
14% | B3
5% | B4
7% | B5
13% | B6
